Common to all, as to test: ELISA, GNA-captured E1E2 lysate; EC50 wild type / EC50 mutant
The target in experiment [1] is E1E2 of HCV isolate H77 with single mutation N209A (in E1) (Hepatitis C virus genotype 1a, strain …, UniProt P27958 192-383; P27958 384-746).
Experiment [2] deals with E1E2 of HCV isolate H77 with single mutation L413A (Hepatitis C virus genotype 1a, strain …, UniProt P27958 192-383; P27958 384-746).
The target in experiment [3] is T1, E1E2 of HCV isolate H77 with single mutation N415A (Hepatitis C virus genotype 1a, strain …, UniProt P27958 192-383; P27958 384-746).
Experiment [4] deals with E1E2 of HCV isolate H77 with single mutation G418A (Hepatitis C virus genotype 1a, strain …, UniProt P27958 192-383; P27958 384-746).
The target of experiment [5] is T2, E1E2 of HCV isolate H77 with single mutation S424A (Hepatitis C virus genotype 1a, strain …, UniProt P27958 192-383; P27958 384-746).
Experiment [6] has as its target E1E2 of HCV isolate H77 with single mutation T435A (Hepatitis C virus genotype 1a, strain …, UniProt P27958 192-383; P27958 384-746).
For experiment [7], the target named is T3, E1E2 of HCV isolate H77 with single mutation L441A (Hepatitis C virus genotype 1a, strain …, UniProt P27958 192-383; P27958 384-746).
Experiment [8] has as its target T4, E1E2 of HCV isolate H77 with single mutation Y443A (Hepatitis C virus genotype 1a, strain …, UniProt P27958 192-383; P27958 384-746).
In experiment [9] the target is E1E2 of HCV isolate H77 with single mutation N448A (Hepatitis C virus genotype 1a, strain …, UniProt P27958 192-383; P27958 384-746).
Experiment [10] deals with E1E2 of HCV isolate H77 with single mutation T526A (Hepatitis C virus genotype 1a, strain …, UniProt P27958 192-383; P27958 384-746).
The target in experiment [11] is E1E2 of HCV isolate H77 with single mutation W529A (Hepatitis C virus genotype 1a, strain …, UniProt P27958 192-383; P27958 384-746).
The target in experiment [12] is E1E2 of HCV isolate H77 with single mutation D533A (Hepatitis C virus genotype 1a, strain …, UniProt P27958 192-383; P27958 384-746).
Experiment [13] concerns the target E1E2 of HCV isolate H77 with single mutation D535A (Hepatitis C virus genotype 1a, strain …, UniProt P27958 192-383; P27958 384-746).
The target in experiment [14] is E1E2 of HCV isolate H77 with single mutation P676A (Hepatitis C virus genotype 1a, strain …, UniProt P27958 192-383; P27958 384-746).
Experiment [15] addresses E1E2 of HCV isolate H77 with single mutation D698A (Hepatitis C virus genotype 1a, strain …, UniProt P27958 192-383; P27958 384-746).
The target of experiment [16] is T1, E1E2 of HCV isolate H77 with single …. The source holds these as a separate data set.
The target of experiment [17] is T2, E1E2 of HCV isolate H77 with single …. This is another data set of the same source.
The target of experiment [18] is E1E2 of HCV isolate H77 with single mutation A439G (Hepatitis C virus genotype 1a, strain …, UniProt P27958 192-383; P27958 384-746).
Experiment [19] addresses T3, E1E2 of HCV isolate H77 with single …. The source holds these as a separate data set.
In experiment [20] the target is T4, E1E2 of HCV isolate H77 with single …. This is another data set of the same source.
The target of experiment [21] is E1E2 of HCV isolate H77 with single mutation G530A (Hepatitis C virus genotype 1a, strain …, UniProt P27958 192-383; P27958 384-746).

Like-named read-outs stand apart in the source and are kept apart here. Bounds are passed on as bounds.

B1: AT15-012 (antibody, V domains shown)
VH: QVQLVQSGAEVKKPGSSVKVSCKASGGNFNIFPITWVRQAPGQGLEWMGEIIPMLGTPEYAQKFQGRVTITADKSTGTAFMELSSLRSEDTAVYYCARTETTLPGTLFFVYYFHFWGQGTPVTVSS
VL: EIVMTQSPVTLSVSPGERAILSCRASQSVSSSLAWYQQKPGQAPRLLIYGASTRATGVPARFSGSGSGTEFTLTISSVQSEDYAIYFCQQYNDRPPWTFGQGTKVEIK
notes: also called AT15-12
On to B1, for which the “relative binding, mutant vs wild type” value in experiment [1] came to 99%; in experiment [2], 132%; in experiment [3], 101%; in experiment [4], 124%; in experiment [5], 67%; in experiment [6], 99%. The “relative binding, mutant vs wild type” value in experiment [7] was 83%; in [8], 103%; in experiment [9], 129%; in experiment [10], 82%; in experiment [11], 77%; in experiment [12], 82%. Further, the “relative binding, mutant vs wild type” value in experiment [13] is 52%; in [14], 92%; in experiment [15], 117%.

B2: AT15-009 (antibody, V domains shown)
VH: QVLLVQSGAEVKKPGSSVKVSCKASGGTFSTYAISWLRQAPGQGPEWMGGIVPMFGITNYAQHFQGRITITADKSTSTAYMELSSLGSEDTAVYFCARDLRSGGTFFSRGFDLWGPGTKVTVSS
VL: EIVLTQSPGTLSLSPGERATLSCRASQSVSSSFLTWYQQKPGQAPRLLIFDASTRATGVPDRFSGSGSGTDFTLTISRLEPEDFGVYYCQQFDSSPTFGGGTKVEIK
As to B2, the “relative binding, mutant vs wild type” value came out at 105% in [1]; 112% in [2]; 116% in experiment [3]; 112% in [4]; 106% in experiment [5]; 101% in experiment [6]. The “relative binding, mutant vs wild type” value in experiment [7] is 57%; in experiment [8], 64%; in experiment [9], 113%; in experiment [10], 87%; in experiment [11], 82%; in experiment [12], 94%. Also, the figures for the “relative binding, mutant vs wild type” value in experiment [13], in experiment [14] and in experiment [15] were 55%, 102% and 116%, respectively.

B3: AT12-010 (antibody, V domains shown)
VH: QLQLVQSGAEVKKPGSSVKVSCKASGGTFTSYAINWVRQVPGQGLEWMGEISPVFGTTHYAQKFQGRLKITADESADTAYMELSSLRSDDTAVYYCGRDRAPRLCSGGRCHSPPDHWGQGTLVTVSS
VL: DIQMTQSPSSVSASVGDRVTITCRASQGFGNWLAWYQQKPGRAPKLLIFGASTLQNGVPSRFSGSASGTDFTLTITSLQPEDFATYYCLQTNTFPYTFGQGTKVEIKR
Take B3: the “relative binding, mutant vs wild type” value in experiment [16] was 117%; in experiment [17], 16%; in experiment [18], 45%; in experiment [19], less than 10%; in experiment [20] it was less than 10%; in [21], less than 10%.

B4: AT12-007 (antibody, V domains shown)
VH: QVQLEQSGAEVKKPGASVKVSCKVSGYTLTELSMHWVRQAPGKGLEWMGSFDPADGERLYAQKFQGRVIMSEDTSTDTAYMELSSLRSEDAAVYYCATAPRMTMFGVIMALDSWGQGTLVTVSS
VL: DIQMTQSPSTLSASLGDRVTITCRASQNINKYLAWYQQKPGKAPKLLIYKASNLQSGVPSRFSGSGSGTDFILTISSLQPDDFATYYCQQYTTYSAWTFGQGTNVDIKR
For B4, the “relative binding, mutant vs wild type” value is 115% in [16]; 34% in experiment [17]; 67% in [18]; less than 10% in experiment [19]; less than 10% in experiment [20]; less than 10% in [21].

For the origin of these results see patent US20170313764A1 (ACADEMISCH MEDISCH CENTRUM, published 2017).
